For six substances, Kd results are on record in doi:10.1101/2023.01.26.525693.

pKd: −log10 of the molar value.

In assay [1] the target is MDM2_(M.trossulus) SWIB domain (bay mussel (Mytilus trossulus)). Kind of assay: fluorescence polarisation.
For assay [2], the target named is MDM2_(D.rerio) SWIB domain (zebra fish (Danio rerio)). The assay is described as follows: stopped-flow spectroscopy.
The target in assay [3] is MDM2_(L.camtschaticum) SWIB domain (arctic lamprey (Lethenteron camtschaticum)). The assay is described as follows: fluorescence polarisation.

A word on the pKd: it is the Kd on a negative log10 scale, so that one unit is a factor of ten. In turn, p53TAD_(M.trossulus) (peptide) showed a pKd in assay [1] of 4.82.
For p53TAD_(D.rerio)[14–27] (peptide), the pKd in assay [2] was 5.72.
In turn, p53TAD_(L.camtschaticum) (peptide) had a pKd in assay [3] of 3.60.
Consider p73TAD_(D.rerio) (peptide), for which the pKd in assay [2] is 6.92.
Still for that read-out and setting: for p53TAD_(D.rerio)^insertT[18] (peptide) the value was 5.64; for p53TAD_(D.rerio)^N26L (peptide), 6.47.
